# Data from patent US20050169843A1.
# Primed or numbered codes have the meaning given here. FITC′ = fluorescein isothiocyanate label
# T1: Gly-Val-Arg-Leu-Gly-Pro-Gly-Lys(FITC)-Cys-NH2 (scrambled control peptide)
# T1 sequence: GVRLGPGKC
# T2: Gly-Pro-Leu-Gly-Val-Arg-Gly-Lys(FITC)-Cys-NH2 (MMP-2 peptide substrate)
# T2 sequence: GPLGVRGKC
# T3: Gly-D-Phe-Pip-Arg-Ser-Gly-Gly-Gly-Gly-Lys(FITC)-Cys-NH2 (thrombin substrate peptide)
# T3 sequence: GFXRSGGGGKC
# T4: Gly-D-Phe-Pip-Arg-Pro-Gly-Gly-Gly-Gly-Lys(FITC)-Cys-NH2 (control peptide)
# T4 sequence: GFXRPGGGGKC
# T5: MMP-7 (human recombinant, E. Coli, Calbiochem), APMA activated (human) (UniProt P09237)
# T5 sequence (looked up): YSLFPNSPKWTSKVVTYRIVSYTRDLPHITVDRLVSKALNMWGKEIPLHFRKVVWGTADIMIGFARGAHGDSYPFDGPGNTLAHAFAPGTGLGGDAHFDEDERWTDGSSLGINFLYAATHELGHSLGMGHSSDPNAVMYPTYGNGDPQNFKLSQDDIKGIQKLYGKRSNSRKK
# B1: MMP-2 sensitive probe (PGC graft copolymer carrying Cy5.5-labelled MMP-2 substrate peptides) (peptide, part only; not given: graft copolymer backbone and dye, part only)
# peptide: {Cy5.5}-GPLGVRGK(FITC′)C-NH2
# modifications: not fully specified (residue 9); printed as GPLGVRGK(FITC)C-NH2; also: about 12 peptides per PGC graft copolymer
# Assays:
# [1] = system: T1, Gly-Val-Arg-Leu-Gly-Pro-Gly-Lys(FITC)-Cys-NH2 (scrambled control peptide)
# [2] = system: T2, Gly-Pro-Leu-Gly-Val-Arg-Gly-Lys(FITC)-Cys-NH2 (MMP-2 peptide substrate)
# thrombin = assay: cell-based or functional assay
# [3] = system: T3, Gly-D-Phe-Pip-Arg-Ser-Gly-Gly-Gly-Gly-Lys(FITC)-Cys-NH2 (thrombin substrate peptide)
# [4] = system: T4, Gly-D-Phe-Pip-Arg-Pro-Gly-Gly-Gly-Gly-Lys(FITC)-Cys-NH2 (control peptide)
# [5] = system: Cy-PL-MPEG at 20% fluorochrome loading (11 of 55 free amino groups labelled with Cy5.5)
# [6] = biological target: MMP-9 (human recombinant protein purified from mammalian cells, Oncogene Research Products), APMA activated (human) (UniProt P14780); assay: cell-based or functional assay
# Chain of MMP-9 (human recombinant protein purified from mammalian cells, Oncogene Research Products), APMA activated (human) (P14780 107-707 limits assumed): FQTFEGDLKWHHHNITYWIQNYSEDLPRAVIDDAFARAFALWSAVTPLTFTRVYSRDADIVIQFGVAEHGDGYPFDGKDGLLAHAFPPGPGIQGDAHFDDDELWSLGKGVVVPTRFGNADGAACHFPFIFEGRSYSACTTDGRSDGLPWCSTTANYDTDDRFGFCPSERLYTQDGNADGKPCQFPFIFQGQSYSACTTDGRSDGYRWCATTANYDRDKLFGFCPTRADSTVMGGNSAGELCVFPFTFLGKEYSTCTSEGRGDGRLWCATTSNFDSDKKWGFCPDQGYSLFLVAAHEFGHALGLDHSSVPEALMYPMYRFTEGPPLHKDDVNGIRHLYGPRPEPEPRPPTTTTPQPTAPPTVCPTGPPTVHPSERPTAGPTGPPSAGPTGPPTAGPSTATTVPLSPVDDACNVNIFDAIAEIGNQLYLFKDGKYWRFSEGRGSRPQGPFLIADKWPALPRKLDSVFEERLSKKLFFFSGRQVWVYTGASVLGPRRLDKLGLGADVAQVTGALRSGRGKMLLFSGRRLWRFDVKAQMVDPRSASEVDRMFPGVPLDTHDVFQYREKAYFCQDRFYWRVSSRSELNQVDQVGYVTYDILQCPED
# [7] = biological target: MMP-2 (human recombinant protein purified from mammalian cells, Calbiochem), APMA activated (human) (UniProt P08253); assay: cell-based or functional assay
# Chain of MMP-2 (human recombinant protein purified from mammalian cells, Calbiochem), APMA activated (human) (P08253 110-660 limits assumed): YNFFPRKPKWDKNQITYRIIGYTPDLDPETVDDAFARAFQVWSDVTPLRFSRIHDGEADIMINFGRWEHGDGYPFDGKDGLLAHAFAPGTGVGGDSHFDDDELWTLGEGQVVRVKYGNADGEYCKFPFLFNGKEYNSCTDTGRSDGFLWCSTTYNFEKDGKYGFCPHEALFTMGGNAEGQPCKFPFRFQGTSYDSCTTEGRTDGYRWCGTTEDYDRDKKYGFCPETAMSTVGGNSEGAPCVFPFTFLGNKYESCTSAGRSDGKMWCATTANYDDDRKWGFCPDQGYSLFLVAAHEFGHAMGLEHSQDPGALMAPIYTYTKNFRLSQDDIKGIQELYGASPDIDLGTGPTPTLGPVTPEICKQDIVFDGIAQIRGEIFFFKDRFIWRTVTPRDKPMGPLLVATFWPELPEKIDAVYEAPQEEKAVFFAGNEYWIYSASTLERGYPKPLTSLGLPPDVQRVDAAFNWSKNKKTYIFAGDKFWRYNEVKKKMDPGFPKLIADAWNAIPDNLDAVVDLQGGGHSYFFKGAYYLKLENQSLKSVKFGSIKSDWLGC
# [8] = biological target: T5, MMP-7 (human recombinant, E. Coli, Calbiochem), APMA activated (human); assay: cell-based or functional assay
# [9] = biological target: MMP-8 (human neutrophil granulocyte, Calbiochem), APMA activated (human) (UniProt P22894); assay: cell-based or functional assay
# Chain of MMP-8 (human neutrophil granulocyte, Calbiochem), APMA activated (human) (P22894 101-467 limits assumed): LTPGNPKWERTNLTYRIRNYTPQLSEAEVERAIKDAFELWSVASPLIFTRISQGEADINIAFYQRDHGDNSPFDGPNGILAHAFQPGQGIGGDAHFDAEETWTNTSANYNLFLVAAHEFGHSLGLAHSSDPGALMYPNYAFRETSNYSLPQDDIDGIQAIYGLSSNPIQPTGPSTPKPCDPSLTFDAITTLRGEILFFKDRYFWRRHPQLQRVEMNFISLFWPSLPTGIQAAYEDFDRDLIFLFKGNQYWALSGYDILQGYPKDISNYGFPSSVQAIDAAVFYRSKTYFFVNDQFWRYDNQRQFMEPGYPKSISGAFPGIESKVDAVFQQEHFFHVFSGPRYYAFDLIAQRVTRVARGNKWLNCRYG
# [10] = biological target: MMP-2 (gelatinase 72 kD, Boehringer Mannheim), activated with p-aminophenyl mercuric acid; assay: cell-based or functional assay
# [11] = biological target: MMP-1 (human rheumatoid synovial fibroblast, Calbiochem), APMA activated (human) (UniProt P03956); assay: cell-based or functional assay
# Chain of MMP-1 (human rheumatoid synovial fibroblast, Calbiochem), APMA activated (human) (P03956 100-469 limits assumed): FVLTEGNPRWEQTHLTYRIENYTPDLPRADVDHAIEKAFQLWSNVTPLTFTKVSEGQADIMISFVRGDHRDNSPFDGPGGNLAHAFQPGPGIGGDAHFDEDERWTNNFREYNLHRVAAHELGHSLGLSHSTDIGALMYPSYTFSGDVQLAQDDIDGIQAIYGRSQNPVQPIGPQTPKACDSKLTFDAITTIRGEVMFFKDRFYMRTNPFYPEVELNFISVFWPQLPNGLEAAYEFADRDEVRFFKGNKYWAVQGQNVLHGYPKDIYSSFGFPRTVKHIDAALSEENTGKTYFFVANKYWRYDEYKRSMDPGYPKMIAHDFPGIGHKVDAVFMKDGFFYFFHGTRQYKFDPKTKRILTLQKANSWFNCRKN
molecule,measurement,setting,value
"MMP-2 (gelatinase 72 kD, Boehringer Mannheim), activated with p-aminophenyl mercuric acid",cleavage followed by HPLC,[1],confirmed by HPLC showing only cleavage of the former but not the latter
same,cleavage followed by HPLC,[2],confirmed by HPLC showing only cleavage of the former but not the latter
control probe (PGC graft copolymer carrying Cy5.5-labelled thrombin control peptide),NIRF signal after addition of thrombin,thrombin,1 fold
thrombin,"enzymatic assay, cleavage followed by HPLC",[3],the peptide was recognized by thrombin and cleaved into two major products
same,"enzymatic assay, cleavage followed by HPLC",[4],there was no cleavage when the serine at P1′ position was replaced by a proline residue
trypsin,fluorescence signal increase upon activation (trypsin cleavage of the backbone),[5],Maximum fluorescence recovery was obtained at 20% loading (15-fold fluorescence signal increase upon activation)
B1,relative fluorescence increase at equimolar conditions (scaled to active MMP-2 set to 100%),[6],19%
same,"fluorescence activation (7 pmole enzyme, 10 pmole probe, 10 minutes, 37°)",[7],4.7 AU
same,relative fluorescence increase at equimolar conditions (scaled to active MMP-2 set to 100%),[8],12%
same,relative fluorescence increase at equimolar conditions (scaled to active MMP-2 set to 100%),[9],28%
same,fluorescence increase in vitro,[10],< 850%
same,relative fluorescence increase at equimolar conditions (scaled to active MMP-2 set to 100%),[11],19%
